From article PMC5508476 (Translational Oncology, 2017) come the findings set out here.

This experiment concerns the target FOLR1-His (Homo sapiens, UniProt P15328). The experiment can be described thus: SPR.

FOLR1-His, sequence (P15328 25-233): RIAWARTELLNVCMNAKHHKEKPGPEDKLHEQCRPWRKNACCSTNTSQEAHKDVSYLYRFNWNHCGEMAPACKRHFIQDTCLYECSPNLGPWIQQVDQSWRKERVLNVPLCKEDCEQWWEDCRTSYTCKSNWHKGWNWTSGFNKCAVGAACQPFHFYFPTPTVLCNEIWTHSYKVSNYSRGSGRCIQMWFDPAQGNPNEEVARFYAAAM

B1: KM8188 (antibody, V domains shown)
VH: EVQLVESGGGVVQPGRSLRLSCSASGFTFSGYGLSWVRQAPGKGLEWVAMISSGGSYTYYADSVKGRFAISRDNAKNTLFLQMDSLRPEDTGVYFCARHGDDPAWFAYWGQGTPVTVSS
VL: DIQLTQSPSSLSASVGDRVTITCSVSSSISSNNLHWYQQKPGKAPKPWIYGTSNLASGVPSRFSGSGSGTDYTFTISSLQPEDIATYYCQQWSSYPYMYTFGQGTKVEIK
B1 came in with a Kd of 31.4 nM.
